Legend:
ENaC = ENaC activity (Ieq, amiloride-sensitive current) in mpkCCD cells; assay type: cell-based; settings: for acute activation of ENaC by prorenin / second (chronic) phase of prorenin-increased sodium transport / ENaC activity: prorenin 10 nM; for acute activation of ENaC by prorenin: PRO20 1.5 μM, losartan 1.0 μM, apocynin 1 mM, eplerenone 10 mg/L; for second (chronic) phase of prorenin-increased sodium transport / ENaC activity: 6 h to 24 h; for Ieq: 10 nM for 5 min, control group 1.17+0.05
Method: FIGS. 32A-H show the role of PRR in the acute regulation of ENaC activity in cultured CD cells. Confluent mpkCCD cells grown on Transwell membrane were pretreated for 30 min with PRO20 (1.5 μM), losartan (1.0 μM), apocynin (1 mM), or eplerenone (10 mg/L) and then treated with AngII (500 nM) or prorenin (10 nM). Ieq was measured by using EVOM and amiloride-sensitive Ieq was determined at the end of experiments. (A) Time course of Ieq changes in control, AngII, and AngII+PRO20 groups. (B) Amiloride-sensitive Ieq measured at 5 min for experiments in (A). (C) Time course of Ieq changes in control, prorenin, and prorenin+PRO20 groups. (D) Amiloride-sensitive Ieq measured at 5 min for experiments in (C). (E) Time course of Ieq changes in control, prorenin, and prorenin+losartan groups. (F) Amiloride-sensitive Ieq measured at 5 min for experiments in (E). (G) Amiloride-sensitive Ieq measured at 5 min in control, prorenin, and prorenin+apocynin groups. (H) Amiloride-sensitive Ieq measured at 5 min in control, prorenin, and prorenin+eplerenone groups. N=6-12 per group. Data are means±SE.
FIGS. 33A-D show the role of PRR in chronic regulation of ENaC by prorenin in cultured CD cells. (A) Time course of Ieq changes in control, prorenin, prorenin+PRO20, and prorenin+losartan groups over 24 h in mpkCCD cells. (B) Time course of changes in Ieq during 24-h aldosterone treatment in mpkCCD cells. (C) Amiloride-sensitive Ieq in mpkCCD cells after exposure for 24 h to 10 nM prorenin in presence or absence of eplerenone. (D) Medium aldosterone concentration in primary rat IMCD cells exposed for 24 h to 10 nM prorenin alone or in combination with 1.5 μM PRO20 or 1.0 μM losartan.
Electrophysiology experiments were performed on the immortalized mpkCCD cells once the cell monolayers reached confluence. The transepithelial voltage (Vte) and resistance (Rte) across cell monolayers were measured with an epithelial volt-ohmmeter (World Precision Instruments). The transepithelial current was calculated according to Ohm's law, Ite=Vte/Rte, and normalized by the surface area of the insert. AngII (500 nM) or prorenin (10 nM) was added to the apical side of the inserts, and amiloride (10 μM) was added at the end of experiments to calculate amiloride-sensitive sodium current as the difference between total current and amiloride-insensitive current.

PRR [1] = experiment: ICV infusion pressor response in WT and neuron-specific PRR knockout (Nefh-PRR) mice, telemetry; assay type: in vivo, mouse; settings: for ΔMAP, pressor response to ICV infusion: Nefh-PRR mice, ICV 100 ng/ul at 0.3 ul/minute for 10 minutes
Method: (§1) FIG. 6 is a series of graphs illustrating the pressor response to intracerebroventricular (ICV) infusion of carbachol (FIG. 6A), Ang II (FIG. 6B), renin (FIG. 6C), and prorenin (FIG. 6D) in wild-type (WT) and Nefh-PRR mice. WT and Nefh-PRR mice were implanted with telemetric transmitters and ICV cannula. Two weeks after recovery, mice were ICV infused (0.3 μl/min) with carbachol (100 ng/μl), Ang II (100 ng/μl), Ang II (100 ng/μl), +losartan (10 ng/μl), mouse renin (100 ng/μl), mouse prorenin (100 ng/μl), or mouse prorenin (100 ng/μl) +losartan (10 ug/μl) over 10 minutes. Blood pressure (BP) was recorded in conscious freely moving mice. *P<0.05 vs. WT.
(§2) Neuron-specific PRR knockout mice (Nefh-PRR) and wildtype (WT) littermates (N=5/group) were each implanted with a telemetric probe for blood pressure (BP) recording and an intracerebroventricular (ICV) cannula for infusion of mouse prorenin (100 ng/ul), mouse renin (100 ng/ul), or an Ang II type 1 receptor (AT1R) blocker (losartan, 10 ug/ul) at 0.3 ul/minute for 10 minutes. Mouse prorenin infusion increased the BP (mmHg) in WT mice (ΔMAP: 41±5); however, the prorenin induced pressor response was abolished in Nefh-PRR mice (ΔMAP: 5±1).

PRR [2] = target: T1, PRR (Mus musculus, UniProt Q9CYN9); experiment: Prorenin-induced pressor response with ICV PRR antagonist peptides in C57BI/6J mice; assay type: in vivo; set-up: from tissue; host or cells: brain of living C57Bl/6J mice (ICV infusion); settings: ICV mouse prorenin 100 ng/ul alone or with peptide 45 ng/ul, 0.3 ul/minute for 10 minutes
Method: C57BI/6J mice (N=5/group) were each implanted with a telemetric probe for BP recording and an intracerebroventricular (ICV) cannula for infusion of mouse prorenin (100 ng/ul), PR10, or PR20 (45 ng/ul) at 0.3 ul/minute for 10 minutes. Mouse prorenin infusion increased the BP (mmHg) in WT mice (ΔMAP: 31.3±1.1); however, the prorenin-induced pressor response was abolished in either PR10 (ΔMAP: 16.9±4.4 vs. prorenin) or PR20 (ΔMAP: 12.7±0.5 vs. prorenin) infused mice.

PRR [3] = target: T1, PRR; experiment: ICV infusion pressor response in WT and neuron-specific PRR knockout (Nefh-PRR) mice, telemetry; assay type: in vivo; set-up: Neuron-specific PRR knockout mice (Nefh-PRR) and wildtype (WT) littermates (N=5/group) were each implanted with a telemetric probe; from tissue; host or cells: brain of living WT and Nefh-PRR mice (ICV infusion); settings: WT mice; ICV 100 ng/ul at 0.3 ul/minute for 10 minutes
Method: as §1, §2

T1 sequence (Q9CYN9 18-350): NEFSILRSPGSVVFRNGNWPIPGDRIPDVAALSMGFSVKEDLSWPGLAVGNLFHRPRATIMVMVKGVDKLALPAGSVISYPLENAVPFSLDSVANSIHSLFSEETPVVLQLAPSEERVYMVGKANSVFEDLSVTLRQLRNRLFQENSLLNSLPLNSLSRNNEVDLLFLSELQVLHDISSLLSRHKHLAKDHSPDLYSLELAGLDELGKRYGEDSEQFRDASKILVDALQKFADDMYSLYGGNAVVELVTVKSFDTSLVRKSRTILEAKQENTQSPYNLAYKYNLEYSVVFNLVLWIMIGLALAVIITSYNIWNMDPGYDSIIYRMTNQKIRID

## COc1cc(C(C)=O)ccc1O [apocynin]
ENaC
  acute activation of ENaC by prorenin: completely abolished

## COC(=O)[C@@H]1CC2=CC(=O)CC[C@]2(C)[C@@]23O[C@@H]2C[C@@]2(C)[C@@H](CC[C@@]24CCC(=O)O4)[C@H]13 [eplerenone]
ENaC
  second (chronic) phase of prorenin-increased sodium transport / ENaC activity: effectively blocked
  acute activation of ENaC by prorenin: unaffected

## CCCCc1nc(Cl)c(CO)n1Cc1ccc(-c2ccccc2-c2nn[nH]n2)cc1 [losartan]
PRR [1]; ICV losartan 10 ug/ul
  pressor response induced by prorenin or renin: completely blocked
ENaC
  second (chronic) phase of prorenin-increased sodium transport / ENaC activity: not
  acute activation of ENaC by prorenin: not

## LPTDTTTFKRIFLKRMPSI (PRR antagonist) [PR20]
PRR [2]
  ΔMAP, prorenin-induced pressor response: 12.7±0.5 mmHg

## renin
ENaC
  Ieq: 1.58+0.19 μA/cm2

## IFDNIISQGVLKEDVF (PRR antagonist PR10)
PRR [2]
  ΔMAP, prorenin-induced pressor response: 16.9±4.4 mmHg

B1: mouse prorenin: mouse prorenin, ligand of PRR, infused ICV (protein)
chain: LPTRTATFERIPLKKMPSVREILEERGVDMTRLSAEWGVFTKRPSLTNLTSPVVLTNYLNTQYYGEIGIGTPPQTFKVIFDTGSANLWVPSTKCSRLYLACGIHSLYESSDSSSYMENGSDFTIHYGSGRVKGFLSQDSVTVGGITVTQTFGEVTELPLIPFMLAKFDGVLGMGFPAQAVGGVTPVFDHILSQGVLKEEVFSVYYNRGSHLLGGEVVLGGSDPQHYQGNFHYVSISKTDSWQITMKGVSVGSSTLLCEEGCAVVVDTGSSFISAPTSSLKLIMQALGAKEKRIEEYVVNCSQVPTLPDISFDLGGRAYTLSSTDYVLQYPNRRDKLCTLALHAMDIPPPTGPVWVLGATFIRKFYTEFDRHNNRIGFALAR
PRR [1]
  ΔMAP, pressor response to ICV infusion: 5±1 mmHg
PRR [3]
  ΔMAP, pressor response to ICV infusion: 41±5 mmHg
PRR [2]
  ΔMAP, prorenin-induced pressor response: 31.3±1.1 mmHg

B2: prorenin: prorenin added at 10 nM to mpkCCD cells; species not stated (protein)
chain: B1 chain
ENaC
  Ieq: 3.16+0.07 μA/cm2

B3: mouse renin: mouse renin, infused ICV (protein, UniProt P06281 72-402, looked up)
Renin-1: SPVVLTNYLNTQYYGEIGIGTPPQTFKVIFDTGSANLWVPSTKCSRLYLACGIHSLYESSDSSSYMENGSDFTIHYGSGRVKGFLSQDSVTVGGITVTQTFGEVTELPLIPFMLAKFDGVLGMGFPAQAVGGVTPVFDHILSQGVLKEEVFSVYYNRGSHLLGGEVVLGGSDPQHYQGNFHYVSISKTDSWQITMKGVSVGSSTLLCEEGCAVVVDTGSSFISAPTSSLKLIMQALGAKEKRIEEYVVNCSQVPTLPDISFDLGGRAYTLSSTDYVLQYPNRRDKLCTLALHAMDIPPPTGPVWVLGATFIRKFYTEFDRHNNRIGFALAR
PRR [1]
  ΔMAP, pressor response to ICV infusion: 27±2 mmHg
PRR [3]
  ΔMAP, pressor response to ICV infusion: 31±5 mmHg

— patent publication US9586995B2, “Compositions and methods of use for (pro)renin receptor” (University of Utah, priority 2012, dated 2017)
